Values of other authors in paper PMC8542695.

Tests used:
[1] = target: non-muscle myosin 2A (NM2A) (Homo sapiens) (UniProt P35579)
p53 (Homo sapiens) = p53 (Homo sapiens) (UniProt P04637)
[2] = target: annexin A2 (ANXA2) (Homo sapiens) (UniProt P07355)
Chain of annexin A2 (ANXA2) (Homo sapiens) (P07355 2-339): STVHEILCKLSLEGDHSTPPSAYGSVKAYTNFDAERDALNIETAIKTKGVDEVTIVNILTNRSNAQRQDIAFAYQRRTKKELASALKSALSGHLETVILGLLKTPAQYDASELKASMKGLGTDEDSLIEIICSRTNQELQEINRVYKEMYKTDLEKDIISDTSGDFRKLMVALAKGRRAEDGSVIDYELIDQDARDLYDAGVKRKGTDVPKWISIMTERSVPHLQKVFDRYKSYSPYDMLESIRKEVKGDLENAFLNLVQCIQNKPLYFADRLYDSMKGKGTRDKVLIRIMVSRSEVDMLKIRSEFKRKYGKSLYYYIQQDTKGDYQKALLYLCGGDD

Chain of S100A4 (P26447 2-101): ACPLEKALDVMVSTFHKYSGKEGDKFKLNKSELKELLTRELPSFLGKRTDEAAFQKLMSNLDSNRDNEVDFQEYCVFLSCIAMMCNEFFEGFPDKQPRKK
Chain of p53 (Homo sapiens) (P04637 whole entry): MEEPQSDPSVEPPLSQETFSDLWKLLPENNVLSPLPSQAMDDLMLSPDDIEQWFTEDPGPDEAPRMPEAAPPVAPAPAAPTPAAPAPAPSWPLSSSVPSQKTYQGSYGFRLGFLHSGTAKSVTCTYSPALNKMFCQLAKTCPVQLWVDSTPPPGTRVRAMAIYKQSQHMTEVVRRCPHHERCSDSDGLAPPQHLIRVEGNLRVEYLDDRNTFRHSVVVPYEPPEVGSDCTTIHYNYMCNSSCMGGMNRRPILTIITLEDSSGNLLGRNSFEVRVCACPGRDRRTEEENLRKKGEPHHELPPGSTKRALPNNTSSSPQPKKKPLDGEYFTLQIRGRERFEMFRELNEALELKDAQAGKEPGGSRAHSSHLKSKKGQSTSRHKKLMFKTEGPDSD
Chain of non-muscle myosin 2A (NM2A) (Homo sapiens) (P35579 2-1960): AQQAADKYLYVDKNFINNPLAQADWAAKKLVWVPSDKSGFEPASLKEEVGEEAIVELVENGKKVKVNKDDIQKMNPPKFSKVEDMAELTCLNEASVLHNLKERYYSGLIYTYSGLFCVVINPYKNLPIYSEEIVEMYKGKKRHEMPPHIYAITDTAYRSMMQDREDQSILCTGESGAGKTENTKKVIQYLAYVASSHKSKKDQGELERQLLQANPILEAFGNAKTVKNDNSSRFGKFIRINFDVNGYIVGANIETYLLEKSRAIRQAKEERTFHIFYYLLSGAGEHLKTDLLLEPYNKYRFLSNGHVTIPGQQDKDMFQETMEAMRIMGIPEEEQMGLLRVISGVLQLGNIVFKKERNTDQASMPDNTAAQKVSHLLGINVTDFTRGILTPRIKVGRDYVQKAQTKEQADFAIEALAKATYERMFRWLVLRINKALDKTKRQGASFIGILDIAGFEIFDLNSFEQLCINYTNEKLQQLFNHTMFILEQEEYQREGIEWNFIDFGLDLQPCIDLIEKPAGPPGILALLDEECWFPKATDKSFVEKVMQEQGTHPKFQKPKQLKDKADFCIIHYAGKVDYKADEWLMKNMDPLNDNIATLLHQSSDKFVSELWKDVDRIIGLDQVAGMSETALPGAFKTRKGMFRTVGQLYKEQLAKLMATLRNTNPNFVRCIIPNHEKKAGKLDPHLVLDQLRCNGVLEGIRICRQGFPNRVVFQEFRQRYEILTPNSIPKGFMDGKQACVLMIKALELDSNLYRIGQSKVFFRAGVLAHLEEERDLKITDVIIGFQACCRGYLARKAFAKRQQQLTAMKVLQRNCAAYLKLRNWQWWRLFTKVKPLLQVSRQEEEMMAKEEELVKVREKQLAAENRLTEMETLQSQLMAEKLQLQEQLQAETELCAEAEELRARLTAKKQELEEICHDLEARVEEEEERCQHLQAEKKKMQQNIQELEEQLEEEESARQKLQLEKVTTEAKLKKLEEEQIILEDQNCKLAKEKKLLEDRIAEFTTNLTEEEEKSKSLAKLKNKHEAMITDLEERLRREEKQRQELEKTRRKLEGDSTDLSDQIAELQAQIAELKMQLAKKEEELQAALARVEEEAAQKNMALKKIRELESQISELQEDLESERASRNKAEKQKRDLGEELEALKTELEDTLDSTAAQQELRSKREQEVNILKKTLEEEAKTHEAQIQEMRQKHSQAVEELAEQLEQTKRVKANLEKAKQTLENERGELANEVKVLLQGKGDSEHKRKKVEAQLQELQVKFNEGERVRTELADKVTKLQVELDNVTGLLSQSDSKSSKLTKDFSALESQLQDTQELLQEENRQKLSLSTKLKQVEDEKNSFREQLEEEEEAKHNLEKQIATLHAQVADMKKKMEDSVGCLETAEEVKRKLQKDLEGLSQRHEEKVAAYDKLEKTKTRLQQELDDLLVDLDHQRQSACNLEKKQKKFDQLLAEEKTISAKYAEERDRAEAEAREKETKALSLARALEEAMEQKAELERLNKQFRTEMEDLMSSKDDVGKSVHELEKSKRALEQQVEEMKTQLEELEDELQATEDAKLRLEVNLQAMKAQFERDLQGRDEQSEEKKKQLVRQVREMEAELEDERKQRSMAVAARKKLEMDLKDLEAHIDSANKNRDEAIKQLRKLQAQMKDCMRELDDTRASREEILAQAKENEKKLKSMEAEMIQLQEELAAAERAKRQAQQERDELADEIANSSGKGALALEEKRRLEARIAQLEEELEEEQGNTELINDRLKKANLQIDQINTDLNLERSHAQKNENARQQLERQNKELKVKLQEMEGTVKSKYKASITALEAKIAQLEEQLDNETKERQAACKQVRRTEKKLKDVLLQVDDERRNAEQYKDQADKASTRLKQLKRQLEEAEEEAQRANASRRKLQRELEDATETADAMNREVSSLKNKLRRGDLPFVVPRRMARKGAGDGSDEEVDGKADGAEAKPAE

- Kd [1]: < 1 nM
- Kd (p53 (Homo sapiens)): 2000 nM
- Kd [2]: 2000 nM
Substance: S100A4 (from UniProt P26447)
